The record followed here is article PMC7547064, “High-resolution cryo-EM structure of urease from the pathogen Yersinia enterocolitica” (Nature Communications, 2020).

What is called stoichiometry N is the number of molecules, sites or subunits per partner or assembly.

B1: Yersinia enterocolitica urease ureC protein (enzyme)
chain: MPQISRQEYAGLFGPTTGDKIRLGDTNLFIEIEKDLRGYGEESVYGGGKSLRDGMGANNHLTRDNGVLDLVITNVTIVDARLGVIKADVGIRDGKIAGIGKSGNPGVMDGVTPGMVVGVSTDAISGEHLILTAAGIDSHIHLISPQQAYHALSNGVATFFGGGIGPTDGTNGTTVTPGPWNIRQMLRSVEGLPVNVGILGKGNSYGRGPLLEQAIAGVVGYKVHEDWGATANALRHSLRMADEMDIQVSVHTDSLNECGYVEDTIDAFEGRTIHTFHTEGAGGGHAPDIIRVASQPNVLPSSTNPTLPYGVNSQAELFDMIMVCHNLNPNVPADVSFAESRVRPETIAAENVLHDMGVISMFSSDSQAMGRVGENWLRVMQTANAMKASRGKLPEDAPGNDNFRVLRYVAKITINPAIAQGVSHVIGSVEVGKMADLVLWDPRFFGAKPKMVIKGGMINWAAMGDPNASLPTPQPVFYRPMFGAMGKTMQDTCVTFVSQAALDDGVKEKAGLDRQVIAVKNCRTISKHDLVRNDQTPNIEVDPETFAVKVDGVHATCEPIDTAAMNQRYFFG
modifications: carbamylated Lys222
notes: urease chain ureC of Yersinia enterocolitica; residues 2-327 and 335-572 were built in the cryo-EM model; Native enzyme purified from the bacterium, with two Ni2+ ions in the active site; also called α-subunit containing the active site; source: purified from Y. enterocolitica cultures (Sephacryl S-300, Mono Q, SEC)

Data set [1] deals with the molecule itself. As to the kind of experiment: cryo-EM structure; single-particle cryo-EM of purified urease at 0.39 mg/ml, frozen in a buffer of pH 7.0; tetrahedral (T) symmetry imposed; map at 1.98 Å; no substrate or inhibitor.
Data set [2] has as its target B1. The description is as above. Particulars: both partners purified.

On to B1, for which the binding result in data set [1] was “binds”.

B2: Y. enterocolitica urease hetero-trimer formed by the three protein chains (ureA, ureB, ureC) (complex)
chain 1: MQLTPREVEKLMIYTLSDVAFKRKARGLKLNYPEAVSIITETAMEGARDGKSVEDVMKEASKVLTKDDVMDGVADLIPNVQVEAIFTDGSRLVTVHDPIK
chain 2: MSTKTNSTKATSEKTDSLKTNRGTKSSAGYSDQNIPLGGCILADTPITFNENKPVTKVKVRNTGDRPIQVGSHFHFFEANRALEFDRAAAYGKRLNISSTTAIRFEPGDETEVPLIPFGGKQTLYGFNNLVDGWTGEGVVPNSERPDKLEAIRRAAERGFKSSK
chain 3: MPQISRQEYAGLFGPTTGDKIRLGDTNLFIEIEKDLRGYGEESVYGGGKSLRDGMGANNHLTRDNGVLDLVITNVTIVDARLGVIKADVGIRDGKIAGIGKSGNPGVMDGVTPGMVVGVSTDAISGEHLILTAAGIDSHIHLISPQQAYHALSNGVATFFGGGIGPTDGTNGTTVTPGPWNIRQMLRSVEGLPVNVGILGKGNSYGRGPLLEQAIAGVVGYKVHEDWGATANALRHSLRMADEMDIQVSVHTDSLNECGYVEDTIDAFEGRTIHTFHTEGAGGGHAPDIIRVASQPNVLPSSTNPTLPYGVNSQAELFDMIMVCHNLNPNVPADVSFAESRVRPETIAAENVLHDMGVISMFSSDSQAMGRVGENWLRVMQTANAMKASRGKLPEDAPGNDNFRVLRYVAKITINPAIAQGVSHVIGSVEVGKMADLVLWDPRFFGAKPKMVIKGGMINWAAMGDPNASLPTPQPVFYRPMFGAMGKTMQDTCVTFVSQAALDDGVKEKAGLDRQVIAVKNCRTISKHDLVRNDQTPNIEVDPETFAVKVDGVHATCEPIDTAAMNQRYFFG
modifications: carbamylated Lys222
notes: urease chain ureA of Yersinia enterocolitica, as m1; residues 1-100 built; urease chain ureB of Yersinia enterocolitica, as m2; residues 31-162 built; urease chain ureC of Yersinia enterocolitica, as m3; residues 2-327 and 335-572 built; The asymmetric unit holds one copy each of ureA, ureB and ureC; Twelve such units form the holoenzyme, [[αβγ]3]4, with tetrahedral symmetry; also called basic …
As to B2, the “stoichiometry N” value in data set [1] is 12.

B3: Yersinia enterocolitica urease ureA protein (natural protein)
chain: MQLTPREVEKLMIYTLSDVAFKRKARGLKLNYPEAVSIITETAMEGARDGKSVEDVMKEASKVLTKDDVMDGVADLIPNVQVEAIFTDGSRLVTVHDPIK
notes: urease chain ureA of Yersinia enterocolitica; all residues of ureA (1-100) were built in the cryo-EM model; Native enzyme purified from the bacterium; source: purified from Y. enterocolitica cultures (Sephacryl S-300, Mono Q, SEC)
As to B3, the binding result in data set [1] and in data set [2] was “binds” throughout.

B4: Yersinia enterocolitica urease ureB protein (natural protein)
chain: MSTKTNSTKATSEKTDSLKTNRGTKSSAGYSDQNIPLGGCILADTPITFNENKPVTKVKVRNTGDRPIQVGSHFHFFEANRALEFDRAAAYGKRLNISSTTAIRFEPGDETEVPLIPFGGKQTLYGFNNLVDGWTGEGVVPNSERPDKLEAIRRAAERGFKSSK
notes: urease chain ureB of Yersinia enterocolitica; residues 31-162 were built in the cryo-EM model; the N-terminal extension was too disordered to be modelled; Native enzyme purified from the bacterium; source: purified from Y. enterocolitica cultures (Sephacryl S-300, Mono Q, SEC)
With B4, the binding result in data set [1] and in data set [2] was “binds” each time.
